In the nanobody polyreactivity screen of Harvey et al. (2022):

Experiment: yeast display, Sf9 membrane polyspecificity reagent, FACS + sequencing; frameworks hold sequencing errors
Summary of the method: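 Sorting gates, low and high (top ~1%), were placed on anti-HA fluorescence to track expression and on streptavidin fluorescence to track reagent binding. A clone's polyreactivity label is taken from the gate it came out of. The reagent was 10% biotinylated, detergent-solubilized Sf9 membrane, applied for 1 hour at 4 °C to galactose-induced yeast display cells.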

Row | Sequence | polyreactivity (PSR sort gate)
1 | QVQLVESGGGLVQAGGILRLSCAASGNIFESYGMGWYRQAPGKERELVAANSYSGGTTYYADSVKGRFTFSRDNEKNTVYLQMNSLKPEDTAVYYCAARLHHFFTYDYWGQGTQVTVSS | low polyreactivity
2 | QVQLVESGGGLVQAGGSLRLSCAASGRTFISYAMGWYRQAPGKESELVAAISSSGGSTYYADSVKGRFTISRDNAKNTVYLQMNSLKPEDTEVYYCNAAKVRRDPAWRLLDYWGQGTQVTVSS | low polyreactivity
3 | QVQLVESGGGLVQAGGSLRLSCAASGITFHDNAMGWYRQAPGKERELVAVITRRGGRTYYADSVKGRFTISRDNAKNTVYLQMNSLKPEDTAVYYCAAYYDYTHRFYYWGQGTQVTVSS | high polyreactivity
4 | QVQLVESGGGLVQAGGSLRLSCAASGRIFGRYVMGWYRQAPGKERELVAVISRRSGNTYYADSVKGRFTISRDYAKNTVYLQMNSLKPEDTAVLYCAARYYYSKSDRYDYWGEGTQVTVSS | high polyreactivity
5 | QVQLVESGGGLVQAGGSLRLSCAASGLTFIYKAMAWYRQAPGKERELVAAISGNGGDTYYADSVKGRFTISRDNAKKTVYLQMNSLKPEDTAVYYCAADYAYTPITWDEYWGQGTQVTVSS | low polyreactivity
6 | QVQQQESGGGLVQAVGSLRLSCAASGTIIQLTVMGRYRQAPGKERELVASIDYGGNTNYADSVKGRFTISRDNAKNTVYLHMNSLKPEDTAVYYCAKESRPAEGDSGYDYWGQGTLVTVSS | low polyreactivity
7 | QVHLVESGGGLVQAGGILRLSCAASGRTFRYYAMGWYRQAPGKERELVAAISSGGSTNYADSVKGRFTISRDNAKNTVYLQMNSLKPEDSAVYYCADLWSGNKFNYWGQGTQVTVSS | low polyreactivity
8 | QVQLVESGGGLVQAGGSLRLSCAASGSIFTLYAMGWYRQAPGKERELVAAIDSGGNTNYADSVKGRFTISRDNAKNTVYLQMNSLKPEDTAVYYCAKRHATEFDYWGQGTQVTVSS | low polyreactivity
9 | QVQLVESGGGLVQAGGSLRISCAASGSTFGSYVMGWYRQAPGKERELVAAICGSGGSTYYADSVKGRFTISRDNAKHTVYLQMNSLKPEDTAVYYCAAYVYFPWYGYWGQATQVTVSS | high polyreactivity
10 | QVQLVESGGGLDQAGGSLRLSCAASGIIFVENAMGWYRQAPGKERELVASGDSTYADSVKGRFTISRDNAKNTVYLKMNSRKPEDTAVYYCAAEVYVYHPFVHYDYWGQGTQVTVSS | low polyreactivity
11 | QVQLVESGGGLVQAGGSLRLSCAASGRTFNYYAMGWYRQAPGKERELVAAISSSGGRTYYADSVKGRFTISRDNAKNTVYLQMNSLKPEDTAVYYCAADSFYYRPEYDYWGQGTQVTVSS | low polyreactivity
12 | QVQLVESGGGLVQAGGSLRLSCAATGRTFEGYAMGWYRQAPGKERELVAAISNSGGSTYYADSVKGRFTISRDNAKNTVYLQMNSLKPEDTAVYDCAALSRIRRYGYWGQGTQVNVSS | high polyreactivity
13 | QVQLVESGGGLVQAGGSLRLSCAASGRIFSRSAMGWYRQAPGKERELVAAIRWSTGSTNYADSVKGRFTISRDNAKNTVYLQMNSLKPEDTAVYYCNARYYVRPYSPGYYYWGQGTQVTVSS | high polyreactivity
14 | QVQLVESGGGLVQAGGSLRLSCAASGFTIRRYAMGWYRQAPGKERALVAAITTGGSTYYADSVKGRFTISRDNAKNTVYLQMYSLKPEDTAVYYCATDTYPYPLYYSPGAYGYWGQGTQVTVSS | high polyreactivity
15 | QVQLVESGGGLVQAGGSLRLSCAASGRIFVGNAKGWYRQAPRKERELVAAIDESGGSTYYADSVKGRFTISRDNAKTTVYLQMNSLKPEDTAGYYCNAVWFWLRYYKYEYWGQGTQVTVSS | high polyreactivity
16 | QVQLVESGGGLVQAGGSLRLSCAASGFTFGGYAMGWYRQAPGKERELVAAIRASGGSTYYADSVKGRFTISRDNAKNTVYLQMNSLKPEDTAVYYCNADIWYKTYDYWGQGTQVTVSS | low polyreactivity
17 | QVPLVESGGGLVQAGGSLRLSCAASGFTFGWYAMGWYRQAPGKERELVAAISSNGGRTSYADSVKGRFTISRDNAKNTVYLQMNSLKPEDTAVYYCNADDRYIWTYWGWTIYDYWGQGTQVTVSS | high polyreactivity
18 | QVQLVESGGGLVQAGGSLRLSCAASGNTFYGYALGWYRPAPGKERELVASITLSGDSTHYADSVKGRFTISRDNAKNTVYVQMNSLKPEDTAVYYCAGVYTYPLGYYHYTYDYWGQGTQVTVSS | low polyreactivity
19 | QVQLVESGGGLVQAGGSLRLICAASGRTYLWYTMGWYRQAPGKEREFVAAIWSGDSTYYADSVKGRFTISRDNAKNTVYLQMNSLKPEDTAVYYCAARRFRGSYYWGQGTQVTVSS | high polyreactivity
20 | QVQLVESGGGLVQAGGSLRLSCAATGRTFVTYAMGWYRQAPGKEREFVAAITWSTGTSTYYADSVKGRFTISRDNAKNTVFLQIHSLNQEDTAVDYCHADSQEWIWLYEGYDYWGQGTQVSVSS | low polyreactivity
21 | QVHLVESGGGLVQAGGSLRLSCAASGSIFYINAMGWYRQPPGKDREFVARISWRSGSTSYADSVKGRFTISRDNAKNTVYLQMNSLKPEDTAVYYCNAGVFANDNGGRRDQFTWEYEYWGQGTQVTVSS | low polyreactivity

Row | Sequence | polyreactivity (PSR sort gate)
22 | QVQLVESGGGLVQAGGSLRLSCAASGNIFSRYAMGWYRKAPGKERELVAAISKSGGSTYYADSVKGRFTISRDNAKNTVYLQMNSLKPEDSAVYYCAAYSFFLGYPEFDYWGQGTQVTVSS | high polyreactivity
23 | QVQLVESGGGLVQAGGSLRLSCAASGRTFQKNTMGWYRQARGKEMQLVAAIDFSATTTYYADSVKGRFTISRDNAKNTVYLQMNSLKPEATAVYYCAARWSYPRWELDYWGQGTQVTVSS | high polyreactivity
24 | QVQLVESGGGLVQAGGSLRLSCAASGSIFSRYAMVWYRQAPGKERELVAAISWSGGRTYYADSVKGRFTISRDNAKNTVYLQMNSLKPEDTAVYYCAAPSYTTSWRYDYWGQGTQVTVSS | high polyreactivity
25 | QVQLVESGGGLVQAGGSLRLSCAASGSIFYVNTMGWYRQAPGKERELVAVIDYGGDSTYYADSVKGRFTISRDNAKNTVFLQMNSLKPEDTAVYYCAADAYESGNWEANGYWGQGTEVTVSS | low polyreactivity
26 | QVQLVESGGGLVHAGGSLRLSCAASGFIFAYYAMGWYRQAPGKERELVAAIDSAGRTTYADSVKGRFTISRDNAKNSVYLQMNSLKPEDTAVYYCAKFTPSVYKLSLQQGYDYWGQGNQVTVSS | high polyreactivity
27 | QVQLVESGGGLVQAGGSLRLSCAASGNTFEHYAMGWYRQAPGKERELVAAISYSGGSTYYADSVKGRFTISRDNAKNTVYLQMNSLKPEDTAVYYCNARGRASATGRRGRPDPFGYWGQGTQVTVSS | high polyreactivity
28 | QVQLVESGGGLVQAGGSLRLSCAASGSTFFYYAMGWYRQAPGKERELVARISGGGSTNYADSVKGRFTISRDNAKNTVYLQMNSLKPEDTAVYYCAADRYHYYRYSYGRYGYWGQGTQVTVSS | high polyreactivity
29 | QVQLVESGGGLVQAGGSLRLSCAASGRIFSGYTMGWYRQAPGKERELVAAITRSGGSTYYADSVKGRFTISRDNAKNTVYLQMNSLKPEDTAVYYCNKVSYRRMDSWGQGTQVTVSS | high polyreactivity
30 | QVQLVESGGGLVQAGGSLRLSCAASGYTFDGYPRGWYRQAPGKERELVAVITKSGGRTYYADSVKGRFTNSRDNAKNTVYLQMNSLKPEDTAVYYCAADDSGTKDIVEGEYWGQGTQVTVSS | high polyreactivity
31 | QVQLVESGGGLVQAGGSLRLSCAASGRIFRYYMGWYRQAPGKERELVAVISSGGRTKYADSVKGRFTISRDNAKNTVYLQMNSLKPEDTAVYYCAARYPREAAYGFDYWGQGTQVTVSS | high polyreactivity
32 | QVQLVESGGGLVQAGGSLRLSCAASGSILYHYAMGWYRQAPGKERELVAGISWRGGSTYYADSVKGRFTISRDNAMNTVYLQMNSLKPEDTAVYYCATLRYPYRFYAFQYYYWGQGTQVTVSS | low polyreactivity
33 | QVQLVESGGGLVQAGGSLSLSCAASGLIFDVYAMGWYRKAPGKERELVAVISRGVSTNYPDSVKGRFTISRDNAKNTVYLQMNSLKPEDTAVYYCATDSRGYDYWGQCTQVTVSS | high polyreactivity
34 | QVQLVESGGGLVQAGGSLRLSCAASGRILSPYAMGWYRQAPGKERELVAAITSGGRTHYADSVKGRFTISRDNAKNTVYLQMNSLKRVDTAVYYCAARVRSGWWVRDDYWGQGTQVTVSS | high polyreactivity
35 | QVQLVESGGGLVQAGGSLRLSCAASGSIFYTYVMGWYRQAPGKERELVAAISGTGGRTYYADSVKGRFTISRDNAKNTVYLQMTSLKPEDTAVYYCATRAYHKGFYRITYYYWGQGTQVTVSS | high polyreactivity
36 | QDQLVESGGGLVQAGGSLRLSCAASGFTFYLYAMGWYRQAPGKERELVAAINGGGSSTYYADSVKGRFTISRDNAKTTVYLEMNSLKPEDTAVYYCNAVYYVVYVKEFDYWGQGTQVTVSS | high polyreactivity
37 | QVQLVESGGGLVQAGGSLRLSCAASGSTFPSYAMGWYRQAPGKERELVAAINSGGGTNYADSVKGRFTISRDNAKNTVYFQMNSLKPEDTAVYYCAKSRDDYTNTEGGYWGQGTQVTVSS | low polyreactivity
38 | QVQLEESGGGLVQAGGSLRLSCAASGGIFYEYAMGRYRQAPGKERELVATISFNVASTYADSVKGRFTISRDNAKNTVFLQMNSMKPEDTAVYYCIADTYWYRDSRYDYWGQGTQVTVSS | low polyreactivity
39 | QAQLQESGGSLVQAGGRLRLSCAASGYISVGSVMGWYRQAPSKERELVASIDQVANTNYADSVKGRFTISRDNAKNNVYLQMNSLKPEDTAVYYCATETTYILNYWGQVTQVTVSS | low polyreactivity
40 | QVKLVETGGGLVQAGGSLRLSCAASGITFAYYAMGWYRQAPGKERELVARISRRGGSTYYADSVKGRFTISRDNAKNNVYLQMNSLKPEDTAVYYCAARVVVPKPYVDGDYWGEGTQVTVSS | high polyreactivity
41 | QVQLVESGGGLVQAGGSLRLSCAASGRTFDIYAMGWYRQAPGKERELVAAISSGGSTYYADSVKGRFTISRDNAKNTVYLQMNRLKPEDTAVYYCAVRWYDQVSRRGIGYYWGQGTQVTVSS | low polyreactivity
